Measurements taken from publication PMC8373988, “Structures of a deAMPylation complex rationalise the switch between antagonistic catalytic activities of FICD” (Nature Communications, 2021).
Residue numbers refer to the chain shown, from its start. In names and notes the source's numbering stands. One block for each binder: values may come before it.

Key:
[1] = target: T1, lid-truncated BiP^T229A-V461F-AMP (residues 27–549) (Chinese hamster, UniProt G3I8R9 27-549, T229A | V461F, AMP covalently attached to Thr518 (Thr518-AMP)); assay: crystal structure; heterodimer copurified by gel filtration (FICD:BiP-AMP mixed 1.5:1 with 250 µM ATP, 50 mM KCl, 2 mM MgCl2; TNKMT buffer), sitting drop vapour diffusion at 25 °C; two crystal forms (state 1, state 2); settings: both partners purified
T1 construct: Chinese hamster BiP residues 27–549 (all but helix A of SBDα removed); identical to human BiP over this range; also called AMPylated BiP; BiP-AMP; source: E. coli, purified (Ni-NTA, Ulp1 cleavage, anion exchange, gel filtration); AMPylated in vitro with GST-TEV-FICD^E234G; not shown: His6-Smt3, N-terminal, cleaved

[2] = target: T2, AMPylated biotinylated-AviTag-haBiP^T229A-V461F (residues 27–635) (Chinese hamster, UniProt G3I8R9 27-635, T229A | V461F, AMP covalently attached to Thr518 (Thr518-AMP); biotin on the N-terminal Avi-tag); assay: BLI; biotinylated BiP or BiP-AMP immobilised on streptavidin biosensors, activated in 2 mM ATP for 200 s; apo FICD analytes at 50 nM unless otherwise specified; HKM with 0.05% Triton X-100, 30 °C; second dissociation step with 2 mM ATP; settings: both partners purified
T2 construct: Chinese hamster BiP residues 27–635; identical to human BiP over this range; A GS linker stands between the Avi-tag and BiP residue 27; also called AMPylated BiP; BiP-AMP; source: E. coli, purified; AMPylated in vitro with GST-TEV-FICD^E234G, biotinylated in vitro with GST-BirA, made nucleotide-free, MonoQ; not shown: His6-Smt3, N-terminal, cleaved; Avi-tag (biotinylated), N-terminal, kept

[3] = target: T3, biotinylated-AviTag-haBiP^T229A-V461F (residues 27–635), unmodified (Chinese hamster, UniProt G3I8R9 27-635, T229A | V461F, biotin on the N-terminal Avi-tag); assay: as above; settings: both partners purified
T3 construct: Chinese hamster BiP residues 27–635; identical to human BiP over this range; A GS linker stands between the Avi-tag and BiP residue 27; also called unmodified BiP; BiP:ATP; source: E. coli, purified; biotinylated in vitro with GST-BirA, made nucleotide-free, MonoQ; not shown: His6-Smt3, N-terminal, cleaved; Avi-tag (biotinylated), N-terminal, kept

[4] = target: T4, BiP^T229A-V461F-AMP (residues 27–635), 'full-length' AMPylated BiP (Chinese hamster, UniProt G3I8R9 27-635, T229A | V461F, AMP covalently attached to Thr518 (Thr518-AMP)); assay: contrast variation small-angle neutron scattering (SANS); complexes of partially deuterated and non-deuterated FICD^H363A and BiP-AMP copurified by gel filtration (1.25:1 BiP-AMP:FICD, 250 µM ATP) in TNKMT(0.2) at various %D2O; 4.3–5.5 mg/ml, 12 °C; settings: both partners purified
T4 construct: Chinese hamster BiP residues 27–635 (lacks the unstructured acidic N-terminal region and the C-terminal region with KDEL); identical to human BiP over this range; The deAMPylation assays used BiP^T229A-V461F (UK2521) AMPylated in vitro; also called full-length BiP-AMP; hBiP-AMP; source: E. coli, purified (Ni-NTA, Ulp1 cleavage, anion exchange, gel filtration); AMPylated in vitro with …

[5] = target: the molecule itself; assay: as above
[6] = target: T3, biotinylated-AviTag-haBiP^T229A-V461F …; assay: BLI; biotinylated BiP immobilised on streptavidin biosensor, activated with 2 mM ATP (BiP:ATP); TPR domain 62.5 nM to 16 µM, 50 s association and 50 s dissociation; HKMTx, 30 °C; one-phase global fit and steady-state one site fit; settings: both partners purified
[7] = target: T3, biotinylated-AviTag-haBiP^T229A-V461F …; assay: BLI; biotinylated nucleotide-free BiP (BiP:Apo) immobilised on streptavidin biosensor, before ATP activation; 16 µM TPR domain for 50 s; HKMTx, 30 °C; settings: both partners purified

T2 sequence (G3I8R9 27-635 T229A/V461F): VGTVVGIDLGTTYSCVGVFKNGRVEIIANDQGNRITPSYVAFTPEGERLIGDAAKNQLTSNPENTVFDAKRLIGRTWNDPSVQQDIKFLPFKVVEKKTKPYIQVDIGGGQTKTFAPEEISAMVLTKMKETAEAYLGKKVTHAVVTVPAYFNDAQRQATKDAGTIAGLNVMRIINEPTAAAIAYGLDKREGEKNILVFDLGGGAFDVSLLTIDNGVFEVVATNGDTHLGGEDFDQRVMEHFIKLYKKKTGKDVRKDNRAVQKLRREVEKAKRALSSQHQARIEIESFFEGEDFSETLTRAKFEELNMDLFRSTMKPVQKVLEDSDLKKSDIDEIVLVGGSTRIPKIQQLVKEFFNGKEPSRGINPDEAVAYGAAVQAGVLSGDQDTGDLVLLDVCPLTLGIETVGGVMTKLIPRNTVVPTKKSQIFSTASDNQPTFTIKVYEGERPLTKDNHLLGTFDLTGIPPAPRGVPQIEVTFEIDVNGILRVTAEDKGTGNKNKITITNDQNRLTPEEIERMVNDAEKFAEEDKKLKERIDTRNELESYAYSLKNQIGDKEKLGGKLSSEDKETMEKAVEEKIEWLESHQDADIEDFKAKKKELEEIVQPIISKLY
T3 sequence (G3I8R9 27-635 T229A/V461F): as above
T4 sequence (G3I8R9 27-635 T229A/V461F): as above
T1 sequence (G3I8R9 27-549 T229A/V461F): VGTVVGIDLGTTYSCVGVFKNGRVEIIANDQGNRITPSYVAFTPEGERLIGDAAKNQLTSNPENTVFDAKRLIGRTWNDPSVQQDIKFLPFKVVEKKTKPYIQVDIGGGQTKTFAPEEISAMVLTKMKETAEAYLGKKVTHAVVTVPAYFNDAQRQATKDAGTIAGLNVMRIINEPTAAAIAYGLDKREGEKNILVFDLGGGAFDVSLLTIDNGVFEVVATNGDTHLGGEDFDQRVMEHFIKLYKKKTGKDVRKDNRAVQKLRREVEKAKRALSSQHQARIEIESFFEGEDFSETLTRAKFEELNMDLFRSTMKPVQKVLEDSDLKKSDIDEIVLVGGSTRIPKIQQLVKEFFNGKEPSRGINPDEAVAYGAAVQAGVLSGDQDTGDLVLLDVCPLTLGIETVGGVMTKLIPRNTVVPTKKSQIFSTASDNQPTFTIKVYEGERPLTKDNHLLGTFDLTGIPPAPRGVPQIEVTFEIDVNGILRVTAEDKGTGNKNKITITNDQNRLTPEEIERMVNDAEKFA

binding result [1]: binds
binding result [2]: binds
binding result [3]: binds
B1: FICD^L258D-H363A (residues 104–445), monomeric, catalytically inactive (enzyme, human, UniProt Q9BVA6 104-445, looked up)
chain: LEARAALNQALEMKRQGKREKAQKLFMHALKMDPDFVDALTEFGIFSEEDKDIIQADYLYTRALTISPYHEKALVNRDRTLPLVEEIDQRYFSIIDSKVKKVMSIPKGNSALRRVMEETYYHHIYHTVAIEGNTLTLSEIRHILETRYAVPGKSDEEQNEVIGMHAAMKYINTTLVSRIGSVTISDVLEIHRRVLGYVDPVEAGRFRTTQVLVGHHIPPHPQDVEKQMQEFVQWLNSEEAMNLHPVEFAALAHYKLVYIAPFIDGNGRTSRLLMNLILMQAGYPPITIRKEQRSDYYHVLEAANEGDVRPFIRFIAKCTETTLDTLLFATTEYSVALPEAQP
notes: human FICD, predicted structured regions, residues 104–445; L258D makes FICD monomeric; H363A traps the deAMPylation substrate; also called monomeric FICD^L258D-H363A; UK2093; source: E. coli, purified (Ni-NTA, on-bead Ulp1 cleavage, anion exchange, gel filtration); not shown: His6-Smt3, N-terminal, cleaved

binding result [2]: binds
B2: dimeric FICD^H363A(TPRox): FICD^D160C-T183C-H363A-C421S, oxidised (enzyme, human, UniProt Q9BVA6 104-445, looked up)
chain: B1 chain with D57C, T80C, D155L, C318S
modifications: intramolecular disulfide bond between Cys160 and Cys183
notes: human FICD residues 104–445; also called TPRox (dimeric); source: E. coli, purified; oxidised with CuSO4 and 1,10-phenanthroline, Capto Q, RESOURCE Q, gel filtration; not shown: His6-Smt3, N-terminal, cleaved

binding result [2]: binds
B3: dimeric FICD^H363A(TPRred): FICD^D160C-T183C-H363A-C421S, cysteines reduced (enzyme, human, UniProt Q9BVA6 104-445, looked up)
chain: B1 chain with D57C, T80C, D155L, C318S
notes: human FICD residues 104–445; The cysteine-reduced form of m11; also called TPRred (dimeric); source: E. coli, purified; not shown: His6-Smt3, N-terminal, cleaved

binding result [2]: binds
binding result [3]: binds
binding result [4]: binds
B4: FICD^H363A (residues 104–445), dimeric, catalytically inactive (enzyme, human, UniProt Q9BVA6 104-445, looked up)
chain: B1 chain with D155L
notes: human FICD, predicted structured regions, residues 104–445; also called dimeric FICD; dimeric FICD^H363A; source: E. coli, purified (Ni-NTA, on-bead Ulp1 cleavage, anion exchange, gel filtration); matchout-deuterated form from E. coli BL21 Star (DE3), purified; not shown: His6-Smt3, N-terminal, cleaved
binding result [5]: binds

binding result [2]: binds
binding result [3]: binds
B5: monomeric FICD^L258D-H363A(TPRox): FICD^D160C-T183C-L258D-H363A-C421S, oxidised (enzyme, human, UniProt Q9BVA6 104-445, looked up)
chain: B1 chain with D57C, T80C, C318S
modifications: intramolecular disulfide bond between Cys160 and Cys183
notes: human FICD residues 104–445; PDB entries hold the parent m1; also called TPRox (monomeric); source: E. coli, purified; oxidised with CuSO4 and 1,10-phenanthroline, Capto Q, RESOURCE Q, gel filtration; not shown: His6-Smt3, N-terminal, cleaved

Kd [6]: 1100 nM
Kd [7]: > 160 µM
B6: isolated TPR domain of FICD (domain or fragment)
chain: LEARAALNQALEMKRQGKREKAQKLFMHALKMDPDFVDALTEFGIFSEEDKDIIQADYLYTRALTISPYH
